Results taken from patent US20200317768A1 (published 2020).
Substitutions are numbered along the chain they refer to. Names may count otherwise.

T1: human FcγRIIb extracellular domain, C-terminal His-tag (human, UniProt P31994 43-217)
T1 construct: also called humanFcgRIIb; not shown: His-tag added to C-terminus
T1 sequence: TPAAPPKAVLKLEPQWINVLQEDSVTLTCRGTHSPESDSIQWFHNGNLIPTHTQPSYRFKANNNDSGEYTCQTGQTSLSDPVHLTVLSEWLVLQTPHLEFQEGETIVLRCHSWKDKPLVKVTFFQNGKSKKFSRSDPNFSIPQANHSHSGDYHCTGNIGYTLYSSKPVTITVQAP

T2: cynomolgus monkey FcγRIIb extracellular domain, C-terminal His-tag (cynomolgus monkey)
T2 construct: also called cyno FcγRIIb; cynoFcγRIIb; not shown: His-tag added to C-terminus
T2 chain: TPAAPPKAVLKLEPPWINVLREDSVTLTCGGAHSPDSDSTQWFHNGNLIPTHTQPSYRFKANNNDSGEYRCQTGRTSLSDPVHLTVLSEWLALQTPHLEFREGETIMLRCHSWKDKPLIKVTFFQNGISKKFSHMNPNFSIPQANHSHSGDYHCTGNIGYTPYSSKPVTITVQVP

T3: human FcγRIIaH extracellular domain, C-terminal His-tag (human, UniProt P12318 34-217)
T3 construct: also called human FcγRIIa (type H); FcgRIIaH; not shown: His-tag added to C-terminus
T3 sequence: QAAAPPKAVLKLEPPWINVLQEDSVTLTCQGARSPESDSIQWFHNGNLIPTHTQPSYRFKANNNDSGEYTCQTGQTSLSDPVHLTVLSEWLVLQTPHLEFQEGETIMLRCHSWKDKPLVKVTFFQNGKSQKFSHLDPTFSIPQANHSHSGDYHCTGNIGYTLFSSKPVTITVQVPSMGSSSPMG

T4: cynomolgus monkey FcγRIIa2 extracellular domain, C-terminal His-tag (cynomolgus monkey)
T4 construct: also called cyno FcγRIIa2; cynoFcgRIIa2; not shown: His-tag added to C-terminus
T4 chain: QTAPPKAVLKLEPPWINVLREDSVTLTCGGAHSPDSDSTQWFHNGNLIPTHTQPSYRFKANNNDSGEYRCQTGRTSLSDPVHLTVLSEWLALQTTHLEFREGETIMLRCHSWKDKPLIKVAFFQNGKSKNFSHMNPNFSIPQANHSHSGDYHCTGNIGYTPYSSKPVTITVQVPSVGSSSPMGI

T5: cynomolgus monkey FcγRIIa1 extracellular domain, C-terminal His-tag (cynomolgus monkey)
T5 construct: also called cyno FcγRIIa1; cynoFcgRIIa1; not shown: His-tag added to C-terminus
T5 chain: T4 chain with T95P, A121T, K127I, S128A, N130K, N135D, Q142R

T6: human FcγRIIaR extracellular domain, C-terminal His-tag (human, UniProt P12318 34-217)
T6 construct: also called human FcγRIIa (type R); FcgRIIaR; not shown: His-tag added to C-terminus
T6 chain: T3 sequence with H134R

T7: cynomolgus monkey FcγRIIa3 extracellular domain, C-terminal His-tag (cynomolgus monkey)
T7 construct: also called cyno FcγRIIa3; cynoFcgRIIa3; not shown: His-tag added to C-terminus
T7 chain: T4 chain with K127I, N130K, H133P, Q142R

B1: M103205H795-SG1012 / M103202L889-SK1 (antibody, human IgG1, kappa)
heavy: QVTLKESGPVLVKPTETLTLTCTVSGIDLSHDDISWVRQAPGKGLEWVGIISYAGSTYYASWAKGRLTISKDTSKNQVVLTMTNMDPVDTATYYCARGVPAYSHGGDLWGQGTLVTVSSASTKGPSVFPLAPSSKSTSGGTAALGCLVKDYFPEPVTVSWNSGALTSGVHTFPAVLQSSGLYSLSSVVTVPSSSLGTQTYICNVNHKPSNTKVDKKVEPKSCDKTHTCPPCPAPELLNGPSVFLFPPKPKDTLMISRTPEVTCVVVDVSEEDPEVKFNWYVDGVEVHNAKTKPREEQYNSTYRVVSVLTVLHQDWLNGKEYKCKVSNKALPKPIEKTISKAKGQPREPQVYTLPPSREEMTKNQVSLTCLVKGFYPSDIAVEWESNGQPENNYKTTPMVLDSDGSFFLYSKLTVDKSRWQQGNVFSCSVMHEALHAHYTQKSLSLSP
light: DIVMTQSPATLSLSPGERATLSCTSSQSVYHANWLSWFQQKPGQPPKLLIYWASTLAYGVPSRFSGSGSGTDFTLTISSLQPEDAATYYCAGGYGGGRYAFGQGTKVEIKRTVAAPSVFIFPPSDEQLKSGTASVVCLLNNFYPREAKVQWKVDNALQSGNSQESVTEQDSKDSTYSLSSTLTLSKADYEKHKVYACEVTHQGLSSPVTKSFNRGEC
notes: the text says N434A was introduced into MY101 (which also has A330K); also called MS1032LO06-SG1012
B2: M103205H795-SG1016 / M103202L889-SK1 (antibody, human IgG1, kappa)
heavy: B1 heavy with Q313R, D401R
light: B1 light
notes: the text says Q311R/D399K; also called MS1032LO06-SG1016
B3: M103205H795-SG1031 / M103202L889-SK1 (antibody, human IgG1, kappa)
heavy: B1 heavy with E270D, Q313R, M398P, D415K
light: B1 light
notes: CH with G236N/H268D/Q311R/A330K/D413K/N434A against SG1 (EU numbering); also called MS1032LO06-SG1031
B4: M103205H795-SG1029 / M103202L889-SK1 (antibody, human IgG1, kappa)
heavy: B1 heavy with E270D, Q297L, Q313R, M398P, D415K
light: B1 light
notes: CH with G236N/H268D/Q295L/Q311R/A330K/D413K/N434A against SG1 (EU numbering); also called MS1032LO06-SG1029

Tests used:
[1] = biological target: T1, human FcγRIIb extracellular domain, …; test: SPR (BIACORE); KD of parent SG1 / KD of variant;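 also: relative to parent M103205H795-SG1 carrying the SG1 human heavy chain constant region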
Protocol: (§1) The kinetic analysis of interactions between these antibodies and FcγR was carried out using BIACORE® T200 or BIACORE® 4000 (GE Healthcare). HBS-EP+ (GE Healthcare) was used as the running buffer, and the measurement temperature was set to 25° C. A chip produced by immobilizing Protein A. Protein A/G or mouse anti-human IgG kappa light chain (BD Biosciences) onto a Series S Sensor Chip CM4 or CM5 (GE Healthcare) by the amine-coupling method was used. […] After the measurement, the antibody captured on the chip was washed off by allowing reaction with 10 mM glycine-HCl, pH1.5 and 25 mM NaOH so that the chip was regenerated and used repeatedly. The sensorgrams obtained as measurement results were analyzed by the 1:1 Langmuir binding model using the BIACORE® Evaluation Software to calculate the binding rate constant ka (L/mol/s) and dissociation rate constant kd (l/s), and the dissociation constant KD (mol/L) was calculated from these values. […] Regarding such interactions, KD values were calculated using the following 1:1 binding model described in BIACORE® T100 Software Handbook BR1006-48 Edition AE.

[2] = biological target: T2, cynomolgus monkey FcγRIIb extracellular …; test: SPR (BIACORE); KD of parent SG1 / KD of variant;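 also: relative to parent M103205H795-SG1 carrying the SG1 human heavy chain constant region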
Protocol: as §1

[3] = biological target: T8, human FcγRIIIaV extracellular domain, C-terminal His-tag (human, UniProt P08637 17-208); test: SPR (BIACORE); KD of parent SG1 / KD of variant;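 also: relative to parent M103205H795-SG1 carrying the SG1 human heavy chain constant region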
T8 construct: also called FcgRIIIaV; not shown: His-tag added to C-terminus
Protocol: as §1

[4] = biological target: T3, human FcγRIIaH extracellular domain, …; test: SPR (BIACORE); KD of parent SG1 / KD of variant;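 also: relative to parent M103205H795-SG1 carrying the SG1 human heavy chain constant region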
Protocol: as §1

[5] = biological target: T9, cynomolgus monkey FcγRIIIaS extracellular domain, C-terminal His-tag (cynomolgus monkey, UniProt A3RFZ7 21-206 (rhesus entry)); test: SPR (BIACORE); KD of parent SG1 / KD of variant
T9 construct: also called cyno FcγRIIIaS; cynoFcγRIIIaS; not shown: His-tag added to C-terminus
Protocol: as §1

[6] = biological target: T4, cynomolgus monkey FcγRIIa2 …; test: SPR (BIACORE); KD of parent SG1 / KD of variant
Protocol: as §1

[7] = biological target: T5, cynomolgus monkey FcγRIIa1 …; test: SPR (BIACORE); KD of parent SG1 / KD of variant
Protocol: as §1

[8] = biological target: T6, human FcγRIIaR extracellular domain, …; test: SPR (BIACORE); KD of parent SG1 / KD of variant
Protocol: as §1

[9] = biological target: T7, cynomolgus monkey FcγRIIa3 …; test: SPR (BIACORE); KD of parent SG1 / KD of variant
Protocol: as §1

[10] = biological target: T1, human FcγRIIb extracellular domain, …; test: SPR (BIACORE), antibody captured, FcγR analyte
Protocol: as §1

[11] = biological target: T2, cynomolgus monkey FcγRIIb extracellular …; test: SPR (BIACORE), antibody captured, FcγR analyte
Protocol: as §1

[12] = biological target: T8, human FcγRIIIaV extracellular domain, …; test: SPR (BIACORE), antibody captured, FcγR analyte
Protocol: as §1

[13] = biological target: T3, human FcγRIIaH extracellular domain, …; test: SPR (BIACORE), antibody captured, FcγR analyte
Protocol: as §1

[14] = biological target: T9, cynomolgus monkey FcγRIIIaS …; test: SPR (BIACORE), antibody captured, FcγR analyte
Protocol: as §1

[15] = biological target: T4, cynomolgus monkey FcγRIIa2 …; test: SPR (BIACORE), antibody captured, FcγR analyte
Protocol: as §1

[16] = biological target: T5, cynomolgus monkey FcγRIIa1 …; test: SPR (BIACORE), antibody captured, FcγR analyte
Protocol: as §1

[17] = biological target: T6, human FcγRIIaR extracellular domain, …; test: SPR (BIACORE), antibody captured, FcγR analyte
Protocol: as §1

[18] = biological target: T7, cynomolgus monkey FcγRIIa3 …; test: SPR (BIACORE), antibody captured, FcγR analyte
Protocol: as §1

T9 sequence (A3RFZ7 21-206): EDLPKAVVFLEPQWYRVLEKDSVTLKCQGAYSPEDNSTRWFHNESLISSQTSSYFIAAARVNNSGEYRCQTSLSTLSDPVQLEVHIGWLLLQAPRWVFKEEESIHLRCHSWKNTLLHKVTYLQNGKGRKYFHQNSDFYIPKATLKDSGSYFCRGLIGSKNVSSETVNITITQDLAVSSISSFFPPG
T8 sequence (P08637 17-208 F176V): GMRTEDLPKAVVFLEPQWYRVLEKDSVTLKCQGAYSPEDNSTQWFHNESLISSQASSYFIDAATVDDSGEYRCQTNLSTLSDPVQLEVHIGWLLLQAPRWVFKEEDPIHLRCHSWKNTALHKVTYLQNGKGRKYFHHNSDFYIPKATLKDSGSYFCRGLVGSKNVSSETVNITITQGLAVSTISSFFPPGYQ

| Binder | KD fold (SG1 = 1) [1] [fold] | KD fold (SG1 = 1) [2] [fold] | KD fold (SG1 = 1) [3] [fold] | KD fold (SG1 = 1) [4] [fold] | KD fold (SG1 = 1) [5] [fold] | KD fold (SG1 = 1) [6] [fold] | KD fold (SG1 = 1) [7] [fold] | KD fold (SG1 = 1) [8] [fold] | KD fold (SG1 = 1) [9] [fold] | Kd [10] [nM] | Kd [11] [nM] | Kd [12] [nM] | Kd [13] [nM] | Kd [14] [nM] | Kd [15] [nM] | Kd [16] [nM] | Kd [17] [nM] | Kd [18] [nM] |
| --- | --- | --- | --- | --- | --- | --- | --- | --- | --- | --- | --- | --- | --- | --- | --- | --- | --- | --- |
| B1 | 9.6 | 7.2 | 0.11 | 1.8 | 0.13 | 4.7 | 4.4 | 1.4 | 3.8 | 490 | 270 | 5800 | 500 | 2100 | 1000 | 1100 | 750 | 2300 |
| B2 | 8.7 | 6 | 0.06 | 1.5 | 0.12 | 4.1 | 3.8 | 1.2 | 3.9 | 550 | 330 | 10000 | 500 | 2400 | 1100 | 1300 | 820 | 2200 |
| B3 | 3.8 | 3.9 | 0.04 | 0.7 | 0.06 | 3.1 | 2.6 | 1.3 | 3.1 | 1200 | 500 | 15000 | 1800 | 4400 | 1500 | 1800 | 800 | 2800 |
| B4 | 5.3 | 4.9 | 0.03 | 1.1 | 0.05 | 3.1 | 3.5 | 0.8 | 2.8 | 900 | 400 | 20000 | 790 | 5300 | 1500 | 1400 | 1300 | 3100 |
